Data: patent WO2018215614A1 (dated 2018)

Biological target: T1, mouse Gpa33 in which human Exon III had been substituted (mouse; human, UniProt Q9JKA5 22-70; Q99795 71-139; Q9JKA5 140-319, limits assumed)
T1 sequence (looked up): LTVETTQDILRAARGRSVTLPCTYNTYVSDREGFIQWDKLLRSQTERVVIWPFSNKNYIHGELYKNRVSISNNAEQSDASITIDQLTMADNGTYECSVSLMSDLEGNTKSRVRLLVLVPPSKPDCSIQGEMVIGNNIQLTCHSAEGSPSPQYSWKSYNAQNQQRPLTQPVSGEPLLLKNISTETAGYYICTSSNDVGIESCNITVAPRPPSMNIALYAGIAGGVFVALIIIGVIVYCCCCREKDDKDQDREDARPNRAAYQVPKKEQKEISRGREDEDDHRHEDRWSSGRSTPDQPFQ
Assay: cell-based or functional assay

B1: anti-hGpa33/Rspo4 fusion protein (antibody, human IgG1, kappa)
heavy: EVQLLESGGGLVQPGGSLRLSCAASGFAFSTYDMSWVRQAPGKGLEWVATISSGGSYTYYLDSVKGRFTISRDSSKNTLYLQMNSLQAEDSAIYYCAPTTVVPFAYWGQGTLVTVSSASTKGPSVFPLAPSSKSTSGGTAALGCLVKDYFPEPVTVSWNSGALTSGVHTFPAVLQSSGLYSLSSVVTVPSSSLGTQTYICNVNHKPSNTKVDKKVEPKSCDKTHTCPPCPAPELLGGPSVFLFPPKPKDTLMISRTPEVTCVVVDVSHEDPEVKFNWYVDGVEVHNAKTKPREQYNSTYRVVSVLPVLHQDWLNGKEYKCKVSNKALPAPIEKTISKAKGQPREPQVYTLPPSREEMTKNQVSLTCLVKGFYPSDIAVEWESNGQPENNYKTTPPVLDSDGSFFLYSKLTVDKSRWQQGNVFSCSVMHEALHYHYTQKSLSLSPGKEAAAREAAAREAAAREAAARVGTGLGGNCTGCIICSEENGCSTCQQRLFLFIRREGIRQYGKCLHDCPPGYFGIRGQEVNRCKKCGATCESCFSQDFCIRCKRQFYLYKGKCLPTCPPGTLAHQNTRECQGE
light: DIQMTQSPSSLSVSVGDRVTITCKASQNVRTVVAWYQQKPGLAPKTLIYLASNRHTGVPSRFSGSGSGTDFTFTISSLQPEDIATYFCQQHWSYPLTFGQGTKVEVKRRTVAAPSVFIFPPSDEQLKSGTASVVCLLNNFYPREAKVQWKVDNALQSGNSQESVTEQDSKDSTYSLSSTLTLSKADYEKHKVYACEVTHQGLSSPVTKSFNRGEC
For B1, the “difference in cell viability (ATP-driven luciferase cell viability assay), humanized Gpa33 organoids against wildtype organoids, at 0.2 nM fusion protein” value was 200 fold and the “difference in cell viability (ATP-driven luciferase cell viability assay), humanized Gpa33 organoids against wildtype organoids, at 0.4 nM fusion protein” value was 25 fold.
